# Assay results published in the supplement of paper PMC9170038.
# System: MS2 coat protein
# Experiment: apparent KD of MS2 coat protein; higher = weaker reporter binding
# Details: Eterna round: R107
# Procedure: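 RNA-MaP round R107: designed RNA switches with theophylline, tryptophan, arginine or FMN aptamers are transcribed on-chip within common flanks. They are titrated with SNAP-549-labelled MS2 coat protein in RNA-MaP buffer (100 mM Tris pH 7.5, 80 mM KCl, 4 mM MgCl2), without ligand or with the indicated ligand. Median apparent KD per design.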
# [1] = input ligand: theophylline 20 uM
# [2] = input ligand: theophylline 2 mM
# [3] = input ligand: tryptophan 2.4 mM
Sequence,apparent KD of MS2 coat protein (input ligand: arginine 13.2 mM) [nM],apparent KD of MS2 coat protein (input ligand: none) [nM],apparent KD of MS2 coat protein [1] [nM],apparent KD of MS2 coat protein [2] [nM],apparent KD of MS2 coat protein [3] [nM]
ACAUGAGGAUCACCCAUGUGUCCUCGAAAACGAGGACCGGUACGGCCGCCACUCGAAAUAAGCUGUUGACGAAAAGUCAGCAGCA [Mat - Exclusion - Trytophan A - D21],74.5,126,173,152,316
AAUGAACAUGAGGAUCACCCAUGUCGUGAUACCAGCCGUAAGAGUGGCCCUUGGCAGCGCCAUGAGGACAACAACAUACAUGAGG [Same State Theophylline A],22.9,–,29.7,–,24.8
AGAGUUAGACAAAAGUCUAGCUCACCAGAAGGAGCGUCCGAAAGGACAGGUAGGUCGCUGGUACGUGAGGAUCACCCACGUUCCU [ArgAS 18 #OpenEnded #AlternativeMS2],21.6,24.6,26.3,28.4,23.1
AGCUACUCGUUCCUCAUGUACGAGUGGCAACGAGGACCGGUACGGCCGCCACUCGAAUAAACAUGAGGAUCACCCAUGUACAAAU [T''-M-T'-T-MS2 - Design 8],42.9,–,168,179,–
CUGGACAUGAGGAUCACCCAUGUAAAUCCUCGAGGACCGGUACGGCCGCCACUCGAACGAGUGGCGCGCGAGUGCGCACUCGCGC [aKa],43.6,41.4,66.9,49.3,28.3
AGUAUCAGUGGAAGGAGCGUCGCGAAUGCCACAUGAGGAUCACCCAUGUCGCCUUGAGCGCGACAGGUAGGUCGCCACGGUAGGC [SS-ArgB3],53.2,208,174,338,140
GUGUGGAGCUCGGCCGCCACUCAAACAUGAGGAUCACCCAUGUAAAACAUGAGGAUCACCCAUGUGAGGACCGGGAGAAACACGA [Exclusion Tryptophan B GF8],179,–,329,408,–
UUGAACAUGAGGAUCACCCAUGUGGAUGAUACCAGCUAAAACAUAAGCCCUUGGCAGCAUUAAAAUGAAAUAUCGAAAAGGAAAG [theeternabot_sameState_MS2_Theo_A_1],95.1,–,179,–,127
AUAACUGCCAAGGAUCAUGGGUGAGCAGAUACCAGCUAGGAAACUAGCCCUUGGCAGCUGCAACAUGAGGAUCACCCAUGUAAUA [(T)'-(M)'-(T1)-(T2)-(M1)-(M2)_Design8],38.5,147,83.8,119,90.4
ACAUCCAGAUUAAUCGUGGGCAUACUCGAUACCAGUAUUUUAAUCUACCCUUGGCAGCGACAUGAGGAUCACCCAUGUGCGAUGA [XTheo A #11],11.7,–,13.9,–,12.4
AUAAGUAAGUUUUCGUGUUUUAUUACAGAUACCAGACUAUACGUUGUCCCUUGGCAGCUGGAUUACAUGAGGAUCACCCAUGUUG [#25 Exclusion-TheophyllineA],19,–,33.9,–,23.9
AGAUAACAUGGUUUAAUAAGAUAAACUGAUACCAGUGUAUAUAAUCACCCUUGGCAGCAGCAACAUGAGGAUCACCCAUGUAAUA [JR_SSTheophyA_Sub014],14.9,–,19.6,–,20.6
CCGGCCAGGGCGGCCGCCACUGAACGUGGAAGAAAGAAAACAUGAGGAUCACCCAUGUAAAUCCUCAGGACCGGGCCAGGGCCGG,42.3,57.8,71,67,17.8
AAUAAGUACUUUGAUACCAGCCUGCCAUCAUGCUAAUUUACAUGAGGAUCACCCAUGUUAGGCCCUUGGCAGCAAAGUGCAAUAA [XTheo B #1],12.8,–,15.8,–,12.4
UCUUCGUUGGCGUCACAAUUCAUGCAAUGCCGAGGACCGGUACGGCCGCCACUCGGACUAAUACAUGAGGAUCACCCAUGUCGUG [theeternabot_exclusion_MS2_Trp_A_5],37.9,–,111,219,–
UUCGUUUACGGAAGGAGCGACGGACAUCGGUGAACGACGCACAUGAGGAUCACCCAUGUACGUCAGGUAGGUCGCCGUUAAGAGU [Somama],23,17.4,27.7,19.6,19.2
UGUAUGGACUGAAGGAGCGCCUCAAAAUAGCUUGAGGAUCACCCAAGUAAGGCGAAAGCCGGGCAGGUAGGUCGCAGUCCAUACU [ArgBX 3],12.3,14.3,16.6,15.2,14.8
GGGCCCGUAAGCAGGCCCACAGCGGGUGAUACCAGCAAUAAAACUUGCCCUUGGCAGCACACAGCUACAUGAGGAUCACCCAUGU [Mausdi],24.3,–,59.3,–,88.6
GUGUCCUAGUCGGCCGCCACUGGUACGAAUACCUUCACCCGUGUGCACAUGAGGAUCACCCAUGUCAGGACCGGGACUAGGGUGU [SSTryp B #24],9.87,10,11.4,14.1,9.72

Sequence,apparent KD of MS2 coat protein (input ligand: arginine 13.2 mM) [nM],apparent KD of MS2 coat protein (input ligand: none) [nM],apparent KD of MS2 coat protein [1] [nM],apparent KD of MS2 coat protein [2] [nM],apparent KD of MS2 coat protein [3] [nM]
AUCGUACCUGGUGAUACCAGCAAGUGAUUAUAACAUGAGGAUCACCCAUGUAAUCAGUGAUGCCCUUGGCAGCAUAAUCGGUACA [#24 Same State - Theophylline B],26.9,–,37.8,–,26.6
AAAUAAAUACAUGAGGAUCACCCAUGUGAAGGAGCGCGCGUUAGCGCAGGUAGGUCGCACAUGAACUCCAAAGUGCGAAAGCACA [MAT - Exclusion Arginine A - Mod of Eli - D9],14.5,20,23.1,34.1,20.9
AGGACGGUCGGAAGGAGCGGUACAUGAGGAUCACCCAUGUACUUCUGGGCAUCCGUAGAGUGCCAGGUAGGUCGCCGAUUGCGGG [XArg-B10],16.4,9.36,17.5,10.6,12.9
UCACAUGAGGAUCACCCAUGUACAACUGAAGGAGCGAGACAAAACUCAGGUAGGUCGCAGAAUAAACAAUAGCAUACGACAUGGG [Exclusion Arginine A GF 19],44.6,31,43.1,26.3,27.7
GCUACGUGCUGAAGGAGCGUGGACCUAAACAUGAGGAUCACCCAUGUCGUGUAGGCAGAUUCACAGGUAGGUCGCAGCACGUAGC [SSAB NP+V+V2 #14 Same Structure],61.2,92.2,123,120,99.7
UGUUUCGCGGGCGAUACCAGCUUGAUCGUACUGGCCUGGUACAUGAGGAUCACCCAUGUAAGCCCUUGGCAGCGCGCGCGAGACG [#1 Exclusion - Theophylline B Attempt #3 (HarryS)],19.6,13.5,18.9,32.4,15.7
GCUGUAAGUGCAGAUACCAGCAAGUGAGGUUUCAUAUGACAUGAGGAUCACCCAUGUAUCUGCCCUUGGCAGCUGCACUUACAGC [#28 Same State - Theophylline B],17,–,24.2,–,21.7
UCGCCCAGGAAGGAUUCCUGGGAUAUGGAAGGAGCGCUGAUGCCAGCAGGUAGGUCGCCAACGGACAUGAGGAUCACCCAUGUAC [Same State - Arginine A (Freestyle 8)],14.5,19.9,22.7,26.6,21.2
UGUAUGUGAUCUGAUACCAGUCCAACUGGUAAAACCUGAGGAUCACCCUGGUAAAAUUGGGACCCUUGGCAGCAGAUCGCAUACU,222,350,674,125,560
AAUUAAACAUCGGCCGCCACUUACUCAUGAGGUAACAACAUGAGGAUCACCCAUGUUUGAGGAUCAAGGACCGGGAUGUAAUAAU [AstrosSSTryB#2],23.2,–,38.5,36.8,–
UUCUUUAAGUCGGCCGCCACUGAAACAUGAGGAUCACCCAUGUAUAUUUGUGUAUAGGUGGAUUACAGGACCGGGACUAUAGUAA [JR_ExcTryptoB_Sub023],15.1,14.7,20.2,15.2,14.7
AGCAUUGUAACAGAUACCAGACUUUUAAUGCCUCUAAUAACAUGAGGAUCACCCAUGUAUGUCCCUUGGCAGCUGUUAUGAUGCA [JR_ExcTheophyB_Sub008],68.1,–,171,–,112
AUACAUGAGGAUCACCCAUGUUAUAGUGAAGGAGCGACAUUUAUGUCAGGUAGGUCGCACUAUUGUUUAAUGAUUCUUGGAUCUU [JR_ExcArginiA_Sub017],16.9,15.2,22.4,15.1,18.5
GGACGAAGUUUCUUGUCCGGUCGCUGAGAAGGAGCGCGGUAAACCGCAGGUAGGUCGCUCAGAAAUACAUGAGGAUCACCCAUGU [Orsosous],17.1,21.1,27.2,21.4,21.5
GGUGGCGGGACUGAUACCAGCCACCACCGAUAGACCACAUGAGGAUCACCCAUGUUGGGUGGCCCUUGGCAGCAGUCUUGCUGCC [#1 Same State - Theophylline B Attempt #12 (HarryS)],24.2,206,432,1880,907
UGGGUACCGACGGCCGCCACUGACUAUAGACAUGAGGAUCACCCAUGUAGAGAUCCUAGACUACCCAGGACCGGGUCUGGUGCUA [Exclusion Tryptophane B GF6],61,–,165,149,–
GUUGGUUUGCGAAGGAGCGGGUAUGUUUUCUACUGGAUCCUAACAUGAGGAUCACCCAUGUCCCAGGUAGGUCGCGCGGGCUUUG [12.aA],35.6,38.6,75.2,54.5,45.8
CCCAGUCAUAGCAAAGCAAAUAUACUCGAAGGAGCGUCAUAGUAGGCAGGUAGGUCGCGAGACAUGAGGAUCACCCAUGUAGAGA [ooomullin],35.6,39.7,46.7,57.8,41.3
CCUCAUGAACAUGAGGAUCACCCAUGUACACGAGGACCGGUACGGCCGCCACUCGAAUAACCUAAAUAUAAAUAAUAAUAAUAGG [5' end split MS2],14.6,–,20.1,18.1,–
